Results on one molecule are retold here after patent publication US20110311550A1 (Scripps Research, published 2011).

In experiment [1] the target is E1E2 (Env) of HCV isolate UKN5.15.7 (genotype 5) on HCVpp (hepatitis C virus, isolate UKN5.15.7). The experiment in a line: cell-based or functional assay.
In experiment [2] the target is T1, E1E2 complex of HCV isolate H77 (genotype 1a), wild type (HCV isolate H77, UniProt P27958 192-383; P27958 384-746). The experiment in a line: cell-based or functional assay.
Experiment [3] addresses E1E2 (Env) of HCV isolate UKN2A1.2 (genotype 2a) on HCVpp (hepatitis C virus, isolate UKN2A1.2). The experiment is described as follows: cell-based or functional assay.
The target in experiment [4] is E1E2 (Env) of HCV isolate UKN1B12.16 (genotype 1b) on HCVpp (hepatitis C virus, isolate UKN1B12.16). The experiment is described as follows: cell-based or functional assay.
Experiment [5] deals with E1E2 (Env) of HCV isolate H (genotype 1a) on HCVpp (hepatitis C virus, isolate H). The experiment in a line: cell-based or functional assay.
For experiment [6], the target named is E1E2 (Env) of HCV isolate UKN4.21.16 (genotype 4) on HCVpp (hepatitis C virus, isolate UKN4.21.16). The experiment in a line: cell-based or functional assay.
The target of experiment [7] is E1E2 (Env) of HCV isolate OH8 (genotype 1b) on HCVpp (hepatitis C virus, isolate OH8). The experiment in a line: cell-based or functional assay.
For experiment [8], the target named is VSV (control pseudotype virus envelope). The experiment is described as follows: cell-based or functional assay.
Experiment [9] has as its target E1E2 (Env) of HCV isolate J6 (genotype 2a) on HCVpp (hepatitis C virus, isolate J6, UniProt P26660 192-383; P26660 384-750). The experiment is described as follows: cell-based or functional assay.
Experiment [10] deals with E1E2 (Env) of HCV isolate UKN2B1.1 (genotype 2b) on HCVpp (hepatitis C virus, isolate UKN2B1.1). The experiment is described as follows: cell-based or functional assay.
Experiment [11] addresses T1, E1E2 complex of HCV isolate H77 …. The experiment is described as follows: competition ELISA on H77 E1E2; competitor m37 (Fab N1). In general terms: In an ELISA, binding on a coated surface is turned into a signal by an enzyme label.
Experiment [12] addresses T2, vaccinia-expressed E1E2 complex, isolate HCV-1 (genotype 1a) (hepatitis C virus, isolate HCV-1, UniProt P26664 192-383; P26664 384-746). The experiment is described as follows: competition ELISA on HCV-1 E1E2; competitor m5 (AR3B).
The target of experiment [13] is T2, vaccinia-expressed E1E2 complex, …. The experiment in a line: competition ELISA on HCV-1 E1E2; competitor m2 (AR1B).
Experiment [14] shares this target. The experiment in a line: competition ELISA on HCV-1 E1E2; competitor m1 (AR1A).
Experiment [15] has as its target T1, E1E2 complex of HCV isolate H77 …. The experiment is described as follows: competition ELISA on H77 E1E2; competitor m41 (Fab O1).
The target in experiment [16] is T2, vaccinia-expressed E1E2 complex, …. The experiment is described as follows: competition ELISA on HCV-1 E1E2; competitor m28 (1/39).
The target is the same in experiment [17]. The experiment in a line: competition ELISA on HCV-1 E1E2; competitor m20 (CBH-2).
Experiment [18] has the same target. The experiment in a line: competition ELISA on HCV-1 E1E2; competitor m36 (A4).
Experiment [19] shares this target. The experiment in a line: competition ELISA on HCV-1 E1E2; competitor m29 (2/69A).
For experiment [20] the target is unchanged. The experiment is described as follows: competition ELISA on HCV-1 E1E2; competitor m31 (11/20).
Experiment [21] shares this target. The experiment is described as follows: competition ELISA on HCV-1 E1E2; competitor m27 (3/11).
Experiment [22] deals with T1, E1E2 complex of HCV isolate H77 …. The experiment in a line: competition ELISA on H77 E1E2; competitor m44 (Fab P2).
Experiment [23] has the same target. The experiment in a line: competition ELISA on H77 E1E2; competitor m42 (Fab P1).
Experiment [24] deals with T2, vaccinia-expressed E1E2 complex, …. The experiment is described as follows: competition ELISA on HCV-1 E1E2; competitor m7 (AR3D).

B1: MAb AR3D (antibody, V domains shown)
VH: LEQSGAEVKKPGSSVKVSCKASGDTFRSYVITWARQAPGQGLEWMGAIIPFFGTTNLAQKFQGRVTITADESTKTVYMDLSSLRSDDTAVYYCAKAGDLSVGGVLAGGVPHLRHFDPWGQGTLVTVSS
VL: ELTQSPGTLSLSPGERATLSCRAGQTVASNSLAWYQHKPGQAPRLLIYGASIRASGIPDRFSGSGSGTDFTLTISRLEPEDFAVYYCQQYGLSSTFGQGTRLEIKR
notes: also called IgG1 of Fab L4
For B1, the “Neutralizing activity (IC50) on HCVpp” value in [1] came to 10 µg/mL; in experiment [2] it was 1 µg/mL; in [3] it was 25 µg/mL; in experiment [4], 1 µg/mL; in experiment [5] it was 1 µg/mL; in experiment [6], 1 µg/mL. In addition, the figures for the “Neutralizing activity (IC50) on HCVpp” value in experiment [7], in experiment [9] and in experiment [10] were 5 µg/mL, 50 µg/mL and 25 µg/mL, respectively. Also, the “Neutralizing activity (IC50) on control pseudotype virus” value in experiment [8] is above 50 µg/mL. In addition, the “% residual binding” value amounted to 131% in experiment [11]; 15% in experiment [12]; 92% in experiment [13]; 43% in [14]; 83% in [15]; 80% in experiment [16]. The “% residual binding” value amounted to 51% in experiment [17]; 90% in experiment [18]; 56% in experiment [19]; 47% in [20]; 37% in experiment [21]; 138% in [22]. Further, the “% residual binding” value came to 145% in experiment [23] and 14% in experiment [24].
